According to PMC8563363 (Cell, 2021):

Molecular target: T1, SMC1 (human, UniProt Q14683 1-1233)
T1 sequence: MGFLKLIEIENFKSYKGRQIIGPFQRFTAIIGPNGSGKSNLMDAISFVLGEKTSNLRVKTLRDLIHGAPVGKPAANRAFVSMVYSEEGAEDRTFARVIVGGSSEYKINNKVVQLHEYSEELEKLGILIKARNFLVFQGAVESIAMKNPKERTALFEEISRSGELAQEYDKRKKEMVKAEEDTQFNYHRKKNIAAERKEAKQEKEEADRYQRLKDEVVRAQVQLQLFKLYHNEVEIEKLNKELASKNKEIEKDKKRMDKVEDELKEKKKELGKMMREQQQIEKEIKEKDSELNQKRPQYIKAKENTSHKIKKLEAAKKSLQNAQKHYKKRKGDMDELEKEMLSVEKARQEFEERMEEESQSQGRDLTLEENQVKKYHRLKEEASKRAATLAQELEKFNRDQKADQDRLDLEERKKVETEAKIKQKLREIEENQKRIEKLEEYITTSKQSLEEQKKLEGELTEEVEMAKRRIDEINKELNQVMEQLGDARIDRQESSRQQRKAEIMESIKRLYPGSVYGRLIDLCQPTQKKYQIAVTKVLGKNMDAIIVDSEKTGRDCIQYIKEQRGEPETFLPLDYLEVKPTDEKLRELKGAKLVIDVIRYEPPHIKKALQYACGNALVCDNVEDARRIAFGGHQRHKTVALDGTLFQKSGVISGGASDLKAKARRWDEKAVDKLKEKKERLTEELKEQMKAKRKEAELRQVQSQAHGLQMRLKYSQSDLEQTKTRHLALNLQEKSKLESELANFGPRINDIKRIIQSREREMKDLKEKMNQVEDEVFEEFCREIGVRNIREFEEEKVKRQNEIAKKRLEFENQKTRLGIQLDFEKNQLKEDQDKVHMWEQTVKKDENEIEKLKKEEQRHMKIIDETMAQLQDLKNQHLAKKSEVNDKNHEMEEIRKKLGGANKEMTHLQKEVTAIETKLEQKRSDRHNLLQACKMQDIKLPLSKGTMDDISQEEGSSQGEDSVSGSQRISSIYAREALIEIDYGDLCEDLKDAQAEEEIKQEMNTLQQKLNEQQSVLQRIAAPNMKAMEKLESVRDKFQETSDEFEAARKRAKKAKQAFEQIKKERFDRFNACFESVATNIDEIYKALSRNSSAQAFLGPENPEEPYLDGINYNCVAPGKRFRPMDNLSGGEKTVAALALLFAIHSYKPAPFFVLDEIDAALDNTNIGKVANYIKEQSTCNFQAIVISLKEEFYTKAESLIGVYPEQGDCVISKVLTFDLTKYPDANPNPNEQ
Assay: mass photometry

- binding result: binds
B1: SMC3 with a C-terminal Flag tag (natural protein)
chain: MYIKQVIIQGFRSYRDQTIVDPFSSKHNVIVGRNGSGKSNFFYAIQFVLSDEFSHLRPEQRLALLHEGTGPRVISAFVEIIFDNSDNRLPIDKEEVSLRRVIGAKKDQYFLDKKMVTKNDVMNLLESAGFSRSNPYYIVKQGKINQMATAPDSQRLKLLREVAGTRVYDERKEESISLMKETEGKREKINELLKYIEERLHTLEEEKEELAQYQKWDKMRRALEYTIYNQELNETRAKLDELSAKRETSGEKSRQLRDAQQDARDKMEDIERQVRELKTKISAMKEEKEQLSAERQEQIKQRTKLELKAKDLQDELAGNSEQRKRLLKERQKLLEKIEEKQKELAETEPKFNSVKEKEERGIARLAQATQERTDLYAKQGRGSQFTSKEERDKWIKKELKSLDQAINDKKRQIAAIHKDLEDTEANKEKNLEQYNKLDQDLNEVKARVEELDRKYYEVKNKKDELQSERNYLWREENAEQQALAAKREDLEKKQQLLRAATGKAILNGIDSINKVLDHFRRKGINQHVQNGYHGIVMNNFECEPAFYTCVEVTAGNRLFYHIVDSDEVSTKILMEFNKMNLPGEVTFLPLNKLDVRDTAYPETNDAIPMISKLRYNPRFDKAFKHVFGKTLICRSMEVSTQLARAFTMDCITLEGDQVSHRGALTGGYYDTRKSRLELQKDVRKAEEELGELEAKLNENLRRNIERINNEIDQLMNQMQQIETQQRKFKASRDSILSEMKMLKEKRQQSEKTFMPKQRSLQSLEASLHAMESTRESLKAELGTDLLSQLSLEDQKRVDALNDEIRQLQQENRQLLNERIKLEGIITRVETYLNENLRKRLDQVEQELNELRETEGGTVLTATTSELEAINKRVKDTMARSEDLDNSIDKTEAGIKELQKSMERWKNMEKEHMDAINHDTKELEKMTNRQGMLLKKKEECMKKIRELGSLPQEAFEKYQTLSLKQLFRKLEQCNTELKKYSHVNKKALDQFVNFSEQKEKLIKRQEELDRGYKSIMELMNVLELRKYEAIQLTFKQVSKNFSEVFQKLVPGGKATLVMKKGDVEGSQSQDEGEGSGESERGSGSQSSVPSVDQFTGVGIRVSFTGKQGEMREMQQLSGGQKSLVALALIFAIQKCDPAPFYLFDEIDQALDAQHRKAVSDMIMELAVHAQFITTTFRPELLESADKFYGVKFRNKVSHIDVITAEMAKDFVEDDTTHG
